# Measurements reported in PMC6351639, “Synergistic effect of acetyl xylan esterase from Talaromyces leycettanus JCM12802 and xylanase from Neocallimastix patriciarum achieved by introducing carbohydrate-binding module-1” (AMB Express, 2019).
# Substrate: CC(=O)Oc1ccc([N+](=O)[O-])cc1
# Assay: purified protein
# Assay type: biochemical, Evansstolkia leycettana
# Conditions: optimal conditions, 55 °C, 20 mM citric acid-Na2HPO4 pH 6.0 (standard assay), free enzyme
Protein,Km [µM],Vmax [µmol/min/mg],kcat [s⁻¹],kcat/Km [M⁻¹ s⁻¹]
"AXE + CBM1 (Evansstolkia leycettana) (protein, mature full-length: hydrolase domain 20-309, S/T-rich linker 310-342, CBM1 343-380; signal peptide removed; no tag stated; pPIC9, secreted from Pichia pastoris GS115) VAVDHDGARLARRITRGSLQQVTNFGSNPTNVGMYIYVPNNLATNPGIVVAIHYCTGSAQAYYSGSPYAQLAEQYGFIVIYPSSPYSGTCWDVSSQAALTHNGGGDSNSIANMVTWTISQFNADTSKVFVTGSSSGAMMTNVMAATYPELFAAATVYSGVPAGCFVSSTNQVDAWNSSCAQGQVIDTPAQWASVAENMYPGYTGPRPRMQIYHGSVDTTLYPQNYYETCKQWAGVFGYNYDSPQQTINNDPEANYQTTIWGPNLQGIFATGVGHTVPIHGTQDMEWFGFAGESTGGGTTTTSATTTTTSKPTSTTSSGGSTSTAVAQHWGQCGGIGWTGPTTCVSPYTCTFVNDYYYQCL",500 ± 20,455,306 ± 9,612000 ± 12000
"AXE (Evansstolkia leycettana) (protein, hydrolase domain only, linker and CBM1 (310-380) removed; signal peptide removed; no tag stated; pPIC9, secreted from Pichia pastoris GS115) VAVDHDGARLARRITRGSLQQVTNFGSNPTNVGMYIYVPNNLATNPGIVVAIHYCTGSAQAYYSGSPYAQLAEQYGFIVIYPSSPYSGTCWDVSSQAALTHNGGGDSNSIANMVTWTISQFNADTSKVFVTGSSSGAMMTNVMAATYPELFAAATVYSGVPAGCFVSSTNQVDAWNSSCAQGQVIDTPAQWASVAENMYPGYTGPRPRMQIYHGSVDTTLYPQNYYETCKQWAGVFGYNYDSPQQTINNDPEANYQTTIWGPNLQGIFATGVGHTVPIHGTQDMEWFGFA",720 ± 30,625,326 ± 17,453000 ± 18000
